{"source": "paper PMC13463089", "about": "“PA200 modulates immunoproteasome structure and activity” (Nature Communications, 2026)", "binders": {"B1": {"name": "recombinantly expressed and purified human PA200, Q14997 1-1843 (natural protein)", "chain": "MEPAERAGVGEPPEPGGRPEPGPRGFVPQKEIVYNKLLPYAERLDAESDLQLAQIKCNLGRAVQLQELWPGGLFWTRKLSTYIRLYGRKFSKEDHVLFIKLLYELVSIPKLEISMMQGFARLLINLLKKKELLSRADLELPWRPLYDMVERILYSKTEHLGLNWFPNSVENILKTLVKSCRPYFPADATAEMLEEWRPLMCPFDVTMQKAITYFEIFLPTSLPPELHHKGFKLWFDELIGLWVSVQNLPQWEGQLVNLFARLATDNIGYIDWDPYVPKIFTRILRSLNLPVGSSQVLVPRFLTNAYDIGHAVIWITAMMGGPSKLVQKHLAGLFNSITSFYHPSNNGRWLNKLMKLLQRLPNSVVRRLHRERYKKPSWLTPVPDSHKLTDQDVTDFVQCIIQPVLLAMFSKTGSLEAAQALQNLALMRPELVIPPVLERTYPALETLTEPHQLTATLSCVIGVARSLVSGGRWFPEGPTHMLPLLMRALPGVDPNDFSKCMITFQFIATFSTLVPLVDCSSVLQERNDLTEVERELCSATAEFEDFVLQFMDRCFGLIESSTLEQTREETETEKMTHLESLVELGLSSTFSTILTQCSKEIFMVALQKVFNFSTSHIFETRVAGRMVADMCRAAVKCCPEESLKLFVPHCCSVITQLTMNDDVLNDEELDKELLWNLQLLSEITRVDGRKLLLYREQLVKILQRTLHLTCKQGYTLSCNLLHHLLRSTTLIYPTEYCSVPGGFDKPPSEYFPIKDWGKPGDLWNLGIQWHVPSSEEVSFAFYLLDSFLQPELVKLQHCGDGKLEMSRDDILQSLTIVHNCLIGSGNLLPPLKGEPVTNLVPSMVSLEETKLYTGLEYDLSRENHREVIATVIRKLLNHILDNSEDDTKSLFLIIKIIGDLLQFQGSHKHEFDSRWKSFNLVKKSMENRLHGKKQHIRALLIDRVMLQHELRTLTVEGCEYKKIHQDMIRDLLRLSTSSYSQVRNKAQQTFFAALGAYNFCCRDIIPLVLEFLRPDRQGVTQQQFKGALYCLLGNHSGVCLANLHDWDCIVQTWPAIVSSGLSQAMSLEKPSIVRLFDDLAEKIHRQYETIGLDFTIPKSCVEIAELLQQSKNPSINQILLSPEKIKEGIKRQQEKNADALRNYENLVDTLLDGVEQRNLPWKFEHIGIGLLSLLLRDDRVLPLRAIRFFVENLNHDAIVVRKMAISAVAGILKQLKRTHKKLTINPCEISGCPKPTQIIAGDRPDNHWLHYDSKTIPRTKKEWESSCFVEKTHWGYYTWPKNMVVYAGVEEQPKLGRSREDMTEAEQIIFDHFSDPKFVEQLITFLSLEDRKGKDKFNPRRFCLFKGIFRNFDDAFLPVLKPHLEHLVADSHESTQRCVAEIIAGLIRGSKHWTFEKVEKLWELLCPLLRTALSNITVETYNDWGACIATSCESRDPRKLHWLFELLLESPLSGEGGSFVDACRLYVLQGGLAQQEWRVPELLHRLLKYLEPKLTQVYKNVRERIGSVLTYIFMIDVSLPNTTPTISPHVPEFTARILEKLKPLMDVDEEIQNHVMEENGIGEEDERTQGIKLLKTILKWLMASAGRSFSTAVTEQLQLLPLFFKIAPVENDNSYDELKRDAKLCLSLMSQGLLYPHQVPLVLQVLKQTARSSSWHARYTVLTYLQTMVFYNLFIFLNNEDAVKDIRWLVISLLEDEQLEVREMAATTLSGLLQCNFLTMDSPMQIHFEQLCKTKLPKKRKRDPGSVGDTIPSAELVKRHAGVLGLGACVLSSPYDVPTWMPQLLMNLSAHLNDPQPIEMTVKKTLSNFRRTHHDNWQEHKQQFTDDQLLVLTDLLVSPCYYA"}}, "target": "T1, recombinantly expressed and purified human PA200 (human), Q14997", "T1 chain": "B1 chain", "test": "mass photometry; 20S at 120 nM titrated with PA200 (PA200:20S molar ratios from 0 to 15), Tris 50 mM pH 7.6, 2 h on ice, diluted six times to 20 nM 20S immediately before measurement; apparent KD from counts of free, singly- and doubly-capped 20S", "settings": "remark: other sources report otherwise", "data": [{"binder": "B1", "values": [{"measurement": "stoichiometry N", "result": 2}]}]}
